In publication PMC4339810 (Scientific Reports, 2015):

B1: recombinant HMGA1a (natural protein, UniProt P17096-1 1-107, looked up)
chain: MSESSSKSSQPLASKQEKDGTEKRGRGRPRKQPPVSPGTALVGSQKEPSEVPTPKRPRGRPKGSKNKGAAKTRKTTTTPGRKPRGRPKKLEKEEEEGISQESSEEEQ
notes: HMGA1a, isoform of HMGA1 from alternative splicing
B4: recombinant HMGA1b (natural protein, UniProt P17096-2 1-96, looked up)
chain: MSESSSKSSQPLASKQEKDGTEKRGRGRPRKQPPKEPSEVPTPKRPRGRPKGSKNKGAAKTRKTTTTPGRKPRGRPKKLEKEEEEGISQESSEEEQ
notes: HMGA1b, isoform of HMGA1 from alternative splicing

Experiments:
[1] = molecular target: T1, GST-NPM1 1-295 (full length) (UniProt P06748 1-294); test: pull-down; GST-fused NPM1 forms as bait with recombinant HMGA proteins; bound proteins seen by western blot with anti-HMGA1 and anti-HMGA2 antibodies; conditions: both partners purified
T1 construct: nucleophosmin (NPM1), printed as full length (1-295); Plasmid provided by P.G. Pelicci; pGEX 4T3 GST-NPM1 1-295 is named as the PCR template; also called full-length GST-NPM1; GST-fused NPM1 full length (1-295); source: for EMSA eluted from Glutathione Sepharose 4B

[2] = molecular target: T2, GST-NPM1 1-259 (UniProt P06748 1-259); test: as above; conditions: both partners purified
T2 construct: nucleophosmin (NPM1), residues 1-259; Plasmid provided by P.G. Pelicci

[3] = molecular target: T3, GST-NPM1 1-186 (UniProt P06748 1-186); test: as above; conditions: both partners purified
T3 construct: Plasmid provided by P.G. Pelicci

[4] = molecular target: T4, HMGA1a (UniProt P17096 1-107); test: EMSA; no NPM1; two complexes; EMSA: 4 pmol HMGA preincubated 10 min at 4°C with GST-NPM1/GST in 25 mM Tris/HCl pH 8, 5 mM GSH (8 uL); then 0.1 pmol DNA for 10 min in 180 mM NaCl, 1 mM MgCl2
[5] = molecular target: T5, HMGA2 (UniProt P52926 1-109); test: EMSA; no NPM1; EMSA: 4 pmol HMGA preincubated 10 min at 4°C with GST-NPM1/GST in 25 mM Tris/HCl pH 8, 5 mM GSH (8 uL); then 0.1 pmol DNA for 10 min in 180 mM NaCl, 1 mM MgCl2
T5 sequence: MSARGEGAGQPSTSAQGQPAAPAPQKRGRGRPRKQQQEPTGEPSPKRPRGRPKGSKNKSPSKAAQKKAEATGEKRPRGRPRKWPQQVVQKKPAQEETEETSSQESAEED

[6] = molecular target: T4, HMGA1a; test: as above
[7] = molecular target: B1; test: pull-down; GST-fused NPM1 forms as bait with recombinant HMGA proteins; bound proteins seen by western blot with anti-HMGA1 and anti-HMGA2 antibodies; conditions: both partners purified
[8] = molecular target: B4; test: as above; conditions: both partners purified

T2 sequence (P06748 1-259): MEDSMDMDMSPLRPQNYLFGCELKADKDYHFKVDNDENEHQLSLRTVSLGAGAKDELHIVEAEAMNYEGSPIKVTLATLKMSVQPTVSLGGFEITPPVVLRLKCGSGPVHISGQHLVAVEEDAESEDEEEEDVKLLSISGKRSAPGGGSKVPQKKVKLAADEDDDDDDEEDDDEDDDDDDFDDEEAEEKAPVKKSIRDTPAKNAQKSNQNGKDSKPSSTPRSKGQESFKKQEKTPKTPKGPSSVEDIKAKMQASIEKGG
T1 sequence (P06748 whole entry, the tested form may be a part): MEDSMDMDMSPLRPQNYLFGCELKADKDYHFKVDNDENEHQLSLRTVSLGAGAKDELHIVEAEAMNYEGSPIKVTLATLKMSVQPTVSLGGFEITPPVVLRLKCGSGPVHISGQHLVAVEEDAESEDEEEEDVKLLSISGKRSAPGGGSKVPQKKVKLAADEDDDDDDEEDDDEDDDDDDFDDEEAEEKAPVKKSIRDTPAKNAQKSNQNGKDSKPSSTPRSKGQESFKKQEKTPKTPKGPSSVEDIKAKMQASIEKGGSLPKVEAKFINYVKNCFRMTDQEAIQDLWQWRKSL

Binder: B1
- binding result [1]: binds
- binding result [2]: binds
- binding result [3]: binds

B2: E3 (dsDNA)
DNA 1: AGAAAAACTCCATCTAAAAAAAAAAAAAAAAAAAAAAAAAAACA
DNA 2: TGTTTTTTTTTTTTTTTTTTTTTTTTTTTAGATGGAGTTTTTCT
- binding result [4]: binds

B3: HCRII (dsDNA)
DNA 1: GACACATTAATCTATAATCAAATA
DNA 2: TATTTGATTATAGATTAATGTGTC
- binding result [5]: binds
- binding result [6]: binds

Binder: B4
- binding result [1]: binds
- binding result [2]: binds
- binding result [3]: binds

B5: GST-NPM1 117-186 (domain or fragment, UniProt P06748 117-186, looked up)
chain: VAVEEDAESEDEEEEDVKLLSISGKRSAPGGGSKVPQKKVKLAADEDDDDDDEEDDDEDDDDDDFDDEEA
notes: also called central portion of NPM1 containing the two acidic clusters (A2 and A3)
- binding result [7]: binds
- binding result [8]: binds
